Assay [1] has as its target biotinylated human FcRn (produced by Protocol 1) (human) (UniProt P55899). The assay is described as follows: SPR; KD wt/KD mut vs parental variant. A general note: SPR reads the build-up and loss of mass on a sensor chip optically.
In assay [2] the target is FcγRIIaH (UniProt P12318). The assay is described as follows: SPR; KD wt/KD mut vs parental variant.
Assay [3] concerns the target FcγRIIb (UniProt P31994). The assay is described as follows: SPR; KD wt/KD mut vs parental variant.
Assay [4] concerns the target FcγRIIaR (UniProt P12318). The assay is described as follows: SPR; KD wt/KD mut vs parental variant.
In assay [5] the target is biotinylated human FcRn (produced by Protocol 1) (human) (UniProt P55899). The assay is described as follows: SPR Biacore T200, FcRn on neutravidin, pH 6.
Chain of biotinylated human FcRn (produced by Protocol 1) (human) (P55899 24-297 limits assumed, chain 1 of 2): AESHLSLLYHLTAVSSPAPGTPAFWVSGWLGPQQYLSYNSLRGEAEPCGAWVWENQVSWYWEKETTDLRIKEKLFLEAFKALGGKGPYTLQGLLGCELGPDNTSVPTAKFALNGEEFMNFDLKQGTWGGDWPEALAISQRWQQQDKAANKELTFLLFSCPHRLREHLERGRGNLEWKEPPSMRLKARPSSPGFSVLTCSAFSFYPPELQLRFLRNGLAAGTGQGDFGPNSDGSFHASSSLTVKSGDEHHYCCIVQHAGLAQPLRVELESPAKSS
Chain of biotinylated human FcRn (produced by Protocol 1) (human) (P61769 21-119 limits assumed, chain 2 of 2, further chain): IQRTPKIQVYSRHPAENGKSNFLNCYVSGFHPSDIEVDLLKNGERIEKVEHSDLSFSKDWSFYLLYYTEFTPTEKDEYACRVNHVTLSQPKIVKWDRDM
The target in another assay is FcγRIII (UniProt P08637). The assay is described as follows: SPR ProteOn, Ab on HER2 chip, equilibrium fit.
Chain of FcγRIII (P08637 17-208 limits assumed): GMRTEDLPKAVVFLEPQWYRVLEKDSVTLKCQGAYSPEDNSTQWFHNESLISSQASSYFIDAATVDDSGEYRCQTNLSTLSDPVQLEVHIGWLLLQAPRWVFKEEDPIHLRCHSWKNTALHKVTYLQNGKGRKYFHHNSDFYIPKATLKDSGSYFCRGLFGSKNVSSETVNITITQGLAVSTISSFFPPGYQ
Assay [6] deals with FcγRIIaH (UniProt P12318). The assay is described as follows: SPR ProteOn, Ab on HER2 chip, equilibrium fit.
Assay [7] has as its target FcγRIIb (UniProt P31994). The assay is described as follows: SPR ProteOn, Ab on HER2 chip, equilibrium fit.
The target of assay [8] is FcγRIIaR (UniProt P12318). The assay is described as follows: SPR ProteOn, Ab on HER2 chip, equilibrium fit.
Chain of FcγRIIaR (P12318 34-217 H167R limits assumed): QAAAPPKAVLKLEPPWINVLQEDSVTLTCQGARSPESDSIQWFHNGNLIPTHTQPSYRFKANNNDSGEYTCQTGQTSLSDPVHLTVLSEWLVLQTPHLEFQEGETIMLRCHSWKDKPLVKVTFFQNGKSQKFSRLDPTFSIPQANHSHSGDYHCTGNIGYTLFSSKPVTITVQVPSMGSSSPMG
For the next assay, the target named is FcγRI (UniProt P12314). The assay is described as follows: SPR ProteOn, Ab on HER2 chip, equilibrium fit.
Chain of FcγRI (P12314 16-292 limits assumed): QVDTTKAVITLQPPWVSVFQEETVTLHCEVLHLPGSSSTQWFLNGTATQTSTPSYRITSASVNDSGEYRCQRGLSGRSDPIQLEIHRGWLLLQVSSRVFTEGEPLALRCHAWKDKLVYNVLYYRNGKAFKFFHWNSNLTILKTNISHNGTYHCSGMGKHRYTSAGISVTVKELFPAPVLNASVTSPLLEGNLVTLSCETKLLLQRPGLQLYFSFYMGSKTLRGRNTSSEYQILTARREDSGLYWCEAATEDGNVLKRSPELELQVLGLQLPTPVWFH

Chain of FcγRIIb (P31994 43-217 limits assumed): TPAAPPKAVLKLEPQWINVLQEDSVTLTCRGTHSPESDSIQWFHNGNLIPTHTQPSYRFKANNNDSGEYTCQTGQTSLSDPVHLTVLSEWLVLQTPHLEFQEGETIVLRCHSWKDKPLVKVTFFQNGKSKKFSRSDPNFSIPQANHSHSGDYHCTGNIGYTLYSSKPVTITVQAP
Chain of FcγRIIaH (P12318 34-217 limits assumed): as the sequence (P12318 34-217 H167R limits assumed) above, with R134H counted along it

With “trastuzumab Scaffold 7 (S239D/I332E) variant v31520 (M428F_T250V) (antibody)”, the Fold in assay [1] amounted to 1.2; with FcγRIIaH [2] it was 1.2; in the assay with FcγRIIb [3], 1.1; in the assay with FcγRIIaR [4], 1.2. Further, the Kd – broadly, the constant that tells how readily two partners part at equilibrium – was 286 nM in assay [5]; 32.1 nM in the assay with FcγRIII; 644 nM with FcγRIIaH [6]; 1130 nM with FcγRIIb [7]; 667 nM with FcγRIIaR [8]; 0.0145 nM with FcγRI.

The record behind these values is patent publication US20230303715A1.
